Measured values published in a protein production outcome set (Wang et al. 2014).

Test: label from the status in PepcDB records

Sequence | protein production
MKFLPYIFLLCCGLWSTISFADEDYIEYRGISSNNRVTLDPLRLSNKELRWLASKKNLVIAVHKSQTATLLHTDSQQRVRGINADYLNLLKRALNIKLTLREYADHQKAMDALAEGEVDIVLSHLVTSPPLNNDIAATKPLIITFPALVTTFHDSMRPLTSPKPVNIARVANYPPDEVIHQSFPKATIISFTNLYQALASVSAGHNDYFIGSNIITSSMISRYFTHSLNVVKYYNSPRQYNPLLTRKESVILNEVLNRFVDALTNEVRYEVSQNRLDTGNLAFLNKPLELTEHEKQWIKQHPNLKVLENPYSPPYSMTDENGSVRGVMGDILNIITLQTGLNFSPITVSHNIHAGTQLSPGGWDIIPGAIYSEDRENNVLFAEAFITTPYVFVMQKAPDSEQTLKKGMKVAIPYYYELHFELKEMYPEVEWIQVDNASAAFHKVKEGELDALVATQLNSRYMIDHYYPNELYHFLIPGVPNASLSFAFPRGEPELKDIINKALNAIPPSEVLRLTEKWIKMPNVTIDTWDLYSEQFYIVTTLSVLLVGSSLLWGFYLLRSVRRRKVIQGDLENQISFRKALSDSLPNPTYVVNWQGNVISHNSAFEHYFTADYYKNAMLPLENSDSPFKDVFSNAHEVTAETKENRTIYTQVFEIDNGIEKRCINHWHTLCNLPASDNAVYICGWQDITETRDLINALEVEKNKAIKATVAKSQFLATMSHEIRTPISSIMGFLELLSDSGLSKEQRVEAISLAYATKQSVLGLIGEILDVDKIESGNYQLQPQWVDIPTLVQNTCHSFGAIAASKSIALSCSSTFPEHYLVKIDPQAFKQVLSNLLSNALKFTTEGAVKITTSLGHIDDNHAVIKMTIMDSGSGLLQEEQQQLFKRYSQTSAGRQQTGSGLGLMICKELIKNMQGDLSLESHPGIGTTFTITIPVEISQQVATVEAKAEQPITLPEKLSILIADDHPTNRLLLKRQLNLLGYDVDEATDGVQALHKVSMQHYDLLITDVNMPNMDGFELTRKLREQNSSLPIWGLTANAQANEHEKGLSCGMNLCLFKPLTLDVLKTHLSQLYQVAHIAPQYRHLDIEALKNNTANDLQLMQEILMTFQHETHKDLPAAFQALEAGDNRTFHQCIHRIHGAANILNLQKLINISHQLEITPVSDDSKPEILQLLNSVKEHIAELDQEIAVFCQKND | failed
MTWLPFIIIIPLFGAFSMPIVSLLKGKAKEIWATIISFTTLMVGIQVFREVWNRGTIVYALGSETPFGKANFPIRIVWEVDKFGAIMVLIITLVSFLAVLYSIEYMKHDTGLEKYYTLILILELGMLGIAITGDIFNFYVFLEIMSIASYALVAFRNDTWEAIEAGIKYMFVGSLASSLVLLGIALLYGQYGTLTMGYLAVKMSENPTIVAKIALSLFLGGLLFKSGASPVHMWLADAHPAAPSSISAMLSGLVIKVGGIYAIARVVFSIFLPAINLATVGWLVIIFACITLIVGNAMAVVQEDMKRLLAYSSVGQIGYILLGLGIGMVAYGSKIGELALAGAIYHIVNHAMMKALLFLVAGAVLHELGTRNLNELSGLAKTMPKTTFAFLIGAAAIVGMPPLNGFASKWLIYESSALFNPIIGSIAIIGTAFCTAAYVRVLFTFFGRPNEKVMRAKDPGALMLIPMFILVIAIILMGIFPWQISDKIMIPAARNLWDITSYVMTLMGGG | failed
LEEFKNSSKLVAAAEKERLDKHLGIPCNNCKQFPIEGKCYKCTECIEYHLCQECFDSYCHLSHTFTFREKRNQKWRSLEKRADEV | not failed
MIQTKDIIELTDTYGANNYHPLPIVISKAEGVWVEDPEGNRYMDLLSAYSAVNQGHRHPKIINALIDQANRVTLTSRAFHSDQLGPWYEKVAKLTNKEMVLPMNTGAEAVETAIKTARRWAYDVKKVEANRAEIIVCEDNFHGRTMGAVSMSSNEEYKRGFGPMLPGIIVIPYGDLEALKAAITPNTAAFILEPIQGEAGINIPPAGFLKEALEVCKKENVLFVADEIQTGLGRTGKVFACDWDNVTPDMYILGKALGGGVFPISCAAANRDILGVFEPGSHGSTFGGNPLACAVSIAALEVLEEEKLTERSLQLGEKLVGQLKEIDNPMITEVRGKGLFIGIELNEPARPYCEQLKAAGLLCKETHENVIRIAPPLVISEEDLEWAFQKIKAVLS | not failed
MYIQPLNPTGNVGLTILASLTPIIALLILLAGLRITAWLATLIGSIITILVATFVWGTPIIQVSYAWLIGALVGTWAISWIVFWGLTIYNTLVLTGKFDAFRDWIVRNSTNDARVQAIVLAWSLGALFEGLVGFGYPWAFIAPLLIYLGFDDLKALQVSALANNAPVSFGALGTPIIILASVTGLPLLFISSSVAKVVAILALLPPWILLYLVDKWRGIREAWPIAILGSLSYILGQYPVASFIGPYLPDITGSLISFVILLLFLRVWRPKRVLSLRSVQPNGGESKKYSTKDVIEALSAFIVLIIVVTLWTGPWSPLTKFSLVTLSQTAYSSLLHKNVGVSFAFNPFVAGTSILVSWIIISLVLRASPRIMGEAIKRSFHQYWGGILTGIFVVGLAYVFNFSGMAYSLAWKTSDLGIAFIIVSPLFGWIGCALSGSNTSTNALFGAFQVTTARLTGLPVGLPPALNSVGAELAKPVAPQTASAGVSTTKYVRKEGIVIRKNLPWAIGILIYLILIGVLYAFLAPSLFVH | failed
MLGNTLVGRYQIISHLGGGGFGETFVACDTHLPGLPKCVVKKLQPQANDPATLEIARRLFDTEAQVLYKLGSCDRIPQLLAYFEEDAEFYLVQEFIPGHDLSKELTPGKVFTQDEVTILLQEILTILEFVHQQNVIHRDINPRNLLRRQDGKLILIDFGAVKQITTQIVTPTGENKSTVIIGTPGYIPGEQAQGNPKFSSDIYAVGIVAIQALTGLLPHQLEHDADTHEIIWQNHAQVSSEFARFIDKMVCYDFRQRYAAATTALQALTELTQPASNTIAITPTLPPAKFRFNHTKKSIFIKLLLAILLTSATGIASVFVVNSINSNNATDLAKKGNTFFELQRYKDALSAYEQAVDIRPDYAPAWQGKGKTLFRLKQYQDALTAYDKAIQIQPDYVEAWSGRGFSLQNLQRYSEAIASFDKALQLNENYPEVWNARGEAFSNLKQYDQAIKSYDKAIEFNSDAYESFYNKGLALQSMKEYNEAINAYNKAIEIKSDYERAWYNLGNSLVNLNRYEDAFKAYDKAVQYKTDYAIAWLSRGNVLIILRRYPEALESFNQVIKFNPNNYQAWYGRGWSQHQNQRYAEAIESYKKAATIKPSNYEIWYSLGNSQYILQQYQEAIASYNKAVRYRPKHIESWYSRGNALFSLKQYKEAIASYEQAIKHKPDYSQAINARDEAQRQLQAATPKPVVIPVMPTPEFTNPPQDN | failed
MRYLIGGIFLLISIWQFIVTGRTFSYLKKEGGKRTSPFILLGLWSSLVFAIISFAVAIASFFYVSF | failed
MSFVECPYHSPAERLVAEADEGGPSAITGMGLCFRCLLFSFSGRSGVEGGRVDLNVFGSLGLQPWIGSSRCWGGPCSSALRCGWFSSWPPPSKSAIPIGGGSRGAGRVSRWPPPHWLEAWRVSPRPLSPLSPATFGRGFIAVAVIPGLWARGRGCSSDRL | failed
MTLTPQELQTYLAALVRQNLQIATMIWGPPGVGKSSVVAQVARQHDLDFVDVRLSQLAPTDLRGLPVPEADAQGSGVSRWYPPEFLPRAGAGILFLDEVNMAPPTMQGMAQQLILDRRVGSYELPDGWFVWAAGNRKEDRASVFDMPAPLANRFLHLTVRPDFDSWRSYALAKGLHEHVIAFLTFRPELLWRLDPQQPAWPSPRSWEMAAQLHRAGLDASSAIGEAAGAEFAAFVRLFEQLPDLGTVLSGAGAGLKLPDEPSVRYAAVVGLAARAADAEEAYRAFTWLADSAGPEWLQLYVATLVSKFQALGQLGELAGLLGRDPRLAELVQGALSLAEGLEHHHHHH | failed
MSKVEQNAQHNIQQTSPNAAVQSGLQEWHRIIAEADWERLPDLLAEDVVFSNPSTFDPYHGKGPLMVILPAVFSVLENFQYARHFSSKSGYVLEFNANMGDELLTGVDLIEFNDAGKITDLVVMMRPASVVIDLSVEVGKRIAAAQS | not failed
MLTLALCIMILFTYLCMFFNFKYSAHLSIYISQVILGYVVIIIHIGEHTLPIDILVVMSLGALLLHIKHKHLMQNRMSALFLKRLYYVAFKLVVFTLACFYISLIPIGINVIFLWISAISFSALFTFICYMMCSSNFLNLNNKPDFDVILVLGAGIFTENVTPMLASRLDRALTLYVQQPNAKFIVSGGQGPDEPISEALAMKRYLIHHGVESNHIMLEDQSTSTSENIQFSKSLIESHFECVPKIVCVTSQFHIMRALRFGQKFNLKLTGVGSHTPYHFFEIALIRDFLALMYQYKLLLTVYFAALFFICIITYWFIPSIPL | failed
MSLKDKKILIVEDSKFQAKTIANILNKYGYTVEIALTGEAAVEKVSGGWYPDLILMDIELGEGMDGVQTALAIQQISELPVVFLTAHTEPAVVEKIRSVTAYGYVMKSATEQVLITIVEMALRLYEANVHANEGHHHHHH | not failed
